The values below come from patent US20250340598A1.

Several values for one entry are separate records, joined by “and”; a condition that tells them apart may be missing. Identical values can stand only once.

Assay [1] concerns the target CAP256SU_UCA_OPT_3.0.
The target of assay [2] is CAP256SU (HIV-1).
Assay [3] deals with CAP256SU_UCA_OPT.
Assay [4] deals with CH505 UCA_OPT_2+H130D.
In assay [5] the target is CH505 UCA_OPT2+N332.
For assay [6], the target named is CAM13RRK.
Assay [7] deals with CAM13K+K169R (SIVcpz).
The target of assay [8] is CH505_V2UCAOPT_v3.0.

Take CAP256 VRC26 UCA (antibody): the fold reduction of neutralization reactivity in assay [1] was 3 fold and 4 fold. For the same substance, in assay [2], the IC50, neutralization came to 35 µg/mL.

For the substance CH01 UCA (antibody), in assay [3], the IC50, neutralization was determined as 1.92 µg/mL.

PCT64 LMCA (antibody) yielded a 50% neutralization, pseudovirus neutralization in assay [4] of 100 µg/mL. In assay [5], the IC50, pseudovirus neutralization was found to be 105 µg/mL.

As for PG16 RUA (antibody), the results for the fold enhancement of neutralization sensitivity in assay [6] and in assay [7] were 50 fold and 10 fold, respectively. In assay [8], this substance returned a fold improvement of neutralization sensitivity of 100 fold.
